Results from patent US10188742B2, “Bi-specific antibodies and uses thereof” (ACADEMIA SINICA, priority 2014, dated 2019).

Legend:
[1] = system: mucin (TAG-72 tumor antigen); assay: ELISA antigen binding of hE11 BsAbs; details: FIG. 6A
Method: (§1) The anti-PEG binding specificity of BsAbs was measured by adding graded concentrations of PEG2×TAG72, PEG2×DNS, hCC49 scFv, h6.3Fab×EGFR or h6.3Fab×CD19 in 50 μL 2% skim milk to the mucin, BSA-PEG5000, NH2-PEG3k-NH2 or BSA coated plates at RT for 1 h. The plates were washed with PBS-T (PBS containing 0.05% Tween-20) three times. Rabbit anti-6×His (2 μg/mL) supplemented with HRP-conjugated goat anti-rabbit (2 μg/mL) or HRP-conjugated goat Ig anti human IgG Fab (2 μg/mL) (Jackson ImmunoResearch Laboratories, West Grove, Pa.) in 50 μL dilution buffer were added for 1 h at room temperature. The plates were washed with PBS-T (PBS containing 0.05% Tween-20) three times and with PBS two times. Bound peroxidase activity was measured by adding 150 μL/well ABTS substrate solution (BioLegend, San Diego, Calif.) for 30 min at room temperature. The absorbance (405 nm) of wells was measured in a microplate reader (Molecular Device, Menlo Park, Calif.).
(§2) Binding of the BsAbs was detected by ELISA. Microtiter plates were first coated with antigens and then PEG2×TAG72, PEG2×DNS BsAbs or hCC49 (anti-TAG72) single chain antibody was added. After the plates were extensively washed to remove unbound antibodies, the remaining bound antibodies in each well were detected with HRP-conjugated secondary antibody. […] In sum, PEG2×TAG72 anti-PEG (hE11) BsAb of example 1.2 can bind both PEG and tumor antigens.

[2] = system: Jurkat T cells (Tag-72 positive); assay: Cancer cell selectivity of hE11 BsAbs (surface immunofluorescence); format: cell-based, human; details: culture medium, FIG. 10
Method: PEG2×TAG72 or control PEG2×DNS BsAbs (10 μg/mL) were incubated with A-375 (TAG72−), MCF-7 (TAG72+), Jurkat (TAG72+) or OVCAR-3 (TAG72+) cells at 4° C. for 30 min followed by FITC-labeled goat anti-human immunoglobulin second antibody (2 μg/mL) (Jackson ImmunoResearch Laboratories, West Grove, Pa.) or FITC-labeled 4arm-PEG (2 μg/mL). Tumor-specific targeting of PEGylated compounds was also examined by staining A431 (EGFR^high), and Raji (CD19^high) cell lines with 10 μg/mL of h6.3Fab×EGFR or h6.3Fab×CD19 BsAbs in PBS containing 0.05% BSA (staining buffer) at 4° C. for 30 min. The cells were washed with cold PBS for 3 times. […] After washing with cold PBS, the surface fluorescence of 10^4 viable cells was measured by FACScaliber flow cytometer (Becton Dickinson, Mountain View, Calif., USA) then analyzed with Flowjo (Tree Star Inc., San Carlos, Calif., USA). […]
The binding specificity of monovalent BsAbs with their target proteins was measured by collecting the culture medium of BsAbs producing cells, adding the collected medium to cells that expressed the target protein, then determining the binding by ELSA. After washing the cells, the bound BsAbs were detected by FITC-labeled goat anti-human immunoglobulin second antibody. […]

[3] = system: A431 (EGFR+) tumor cells; assay: Confocal live cell imaging of PEG-Qdot655 internalization; format: cell-based, human; details: 10 μg/mL BsAb, 16 nM PEG-Qdot655
Method: The coverslips (30 mm) in POC chambers were coated with 10 μg/mL poly-L-lysine in PBS for 30 min at room temperature. The coverslips were washed twice with PBS and then 5×10^4 cells/chamber of A431 (EGFR+) tumor cells were seeded on the coverslips. A431 cells were incubated with 10 μg/mL of h6.3Fab×EGFR or h6.3Fab×CD19 BsAbs at 37° C. for 30 min containing 1 μg/mL of Hoechst 33342 and 100 nM of LysoTracker® Red DND-99 (Invitrogen Life Technologies Corporation, NY, USA). The cells were washed with culture medium for 2 times. Cell imaging was recorded with an Axiovert 200M Confocal Microscope (Carl Ziess Inc., Thornwood, N.Y.) after adding 16 nM of PEG-Qdot655 solution (Invitrogen Life Technologies Corporation, NY, USA).
To verify whether BsAb-targeted substance could be internalized by antigen-positive cancer cells, live cell imaging was performed by staining cells with lysosome tracker and BsAbs, followed by the addition and incubation of PEG-Qdot655.

[4] = system: Raji cells (CD19+); assay: Flow cytometry: BsAb-directed PEG-liposome Texas Red / PEG-Qdot655 on cells; format: cell-based; details: PEG-liposome Texas Red and PEG-Qdot655, 10 μg/mL BsAb
Method: PEG2×TAG72 or control PEG2×DNS BsAbs (10 μg/mL) were incubated with A-375 (TAG72−), MCF-7 (TAG72+), Jurkat (TAG72+) or OVCAR-3 (TAG72+) cells at 4° C. for 30 min followed by FITC-labeled goat anti-human immunoglobulin second antibody (2 μg/mL) (Jackson ImmunoResearch Laboratories, West Grove, Pa.) or FITC-labeled 4arm-PEG (2 μg/mL). Tumor-specific targeting of PEGylated compounds was also examined by staining A431 (EGFR^high), and Raji (CD19^high) cell lines with 10 μg/mL of h6.3Fab×EGFR or h6.3Fab×CD19 BsAbs in PBS containing 0.05% BSA (staining buffer) at 4° C. for 30 min. The cells were washed with cold PBS for 3 times. PEG-Qdot655 (8 nM) (Invitrogen, Grand Island, N.Y.) or PEG-liposomal Texas-Red (100 nm size, 50 μM, lipid conc.) (FormuMax Scientific, Palo Alto, Calif.) in staining buffer was added to cells for 30 min at 4° C. Raji cells (CD19+) or SKBR3 cells (HER2+) were incubated with 10 μg/ml h15-2b-knob/BU12-hole, h15-2b-knob/anti-Her2-hole, h6-3-knob/BU12-hole or h6-3-knob/anti-Her2-hole BsAbs, washed and incubated with 0.25 μg/ml FITC-labeled goat anti-human IgG or 10 nM methoxy-PEG Qdot 655 at 4° C. for 30 min. After washing with cold PBS, the surface fluorescence of 10^4 viable cells was measured by FACScaliber flow cytometer (Becton Dickinson, Mountain View, Calif., USA) then analyzed with Flowjo (Tree Star Inc., San Carlos, Calif., USA). […]

[5] = molecular target: BSA (Bos taurus, UniProt P02769); assay: ELISA antigen binding of BsAbs, control protein
Sequence of BSA (P02769 25-607): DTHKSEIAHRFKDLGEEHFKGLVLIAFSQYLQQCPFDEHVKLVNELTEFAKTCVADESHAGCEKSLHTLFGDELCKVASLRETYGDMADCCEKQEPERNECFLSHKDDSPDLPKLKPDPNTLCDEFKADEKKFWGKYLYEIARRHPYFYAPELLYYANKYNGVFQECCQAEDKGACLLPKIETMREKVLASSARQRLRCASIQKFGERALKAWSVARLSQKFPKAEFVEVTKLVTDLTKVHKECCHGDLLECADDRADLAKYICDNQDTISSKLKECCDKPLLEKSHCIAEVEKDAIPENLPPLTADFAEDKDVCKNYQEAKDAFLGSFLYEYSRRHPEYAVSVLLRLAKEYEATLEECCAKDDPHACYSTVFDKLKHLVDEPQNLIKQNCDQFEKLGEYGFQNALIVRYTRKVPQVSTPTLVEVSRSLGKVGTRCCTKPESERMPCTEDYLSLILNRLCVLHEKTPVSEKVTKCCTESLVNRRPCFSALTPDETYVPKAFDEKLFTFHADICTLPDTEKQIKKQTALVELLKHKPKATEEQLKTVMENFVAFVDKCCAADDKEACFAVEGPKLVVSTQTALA
Method: as §1
as §2, with “antigens. […]” for “antigens.”

[6] = ELISA PEG binding of h6.3 BsAbs; details: FIG. 14A
Method: as §1, with “The anti-PEG binding specificity of BsAbs was measured by adding graded concentrations of PEG2×TAG72, PEG2×DNS, hCC49 scFv, h6.3Fab×EGFR or h6.3Fab×CD19 in 50 μL 2% skim milk to the mucin, BSA-PEG5000, NH2-PEG3k-NH2 or BSA coated plates at RT for 1 h.” left out
The PEG-binding kinetics of h6-3Fab×EGFR and h6.3Fab×CD19 BsAbs were verified by Microscale Thermophoresis (MST) (FIGS. 14D and 14E).

[7] = system: Raji (CD19+) cells; assay: Cytotoxicity assay of Doxisome with h6.3 BsAbs (3H-thymidine); format: cell-based; details: compared with Doxisome alone
Method: A431 (EGFR^high) and Raji (CD19^high) cells (5000 cells/well) were seeded in 96-well plates overnight. Fifteen microgram per mL of h6.3Fab×EGFR or h6.3Fab×CD19 BsAbs were added to the cells for 30 min at 37° C. and followed by graded concentrations of free doxorubicin or PEGylated liposomal doxorubicin (Doxisome®, Taiwan Liposome Company Ltd., Taipei, Taiwan) was added to the cells in triplicate at 37° C. for 4 h. The cells were subsequently washed once and incubated for an additional 48 h in fresh culture medium and then pulsed for 16 h with ^3H-thymidine (1 μCi/well). Results are expressed as percent inhibition of ^3H-thymidine incorporation into cellular DNA in comparison to untreated cells.
Next, the ability of whether h6.3Fab×CD19 and h6.3Fab×EGFR BsAbs could increase the cytotoxicity of the drug-loaded nanoparticles (NPs) to antigen-positive cancer cells was investigated. Raji (CD19+) and A431 (EGFR+) cells were incubated with h6.3Fab×CD19 and h6.3Fab×EGFR, followed by the addition of graded concentrations of Doxisome (i.e., PEGylated liposomal doxorubicin).

B1: hcc49 scFv: humanized single-chain antibody fragment against TAG-72 antigen (protein)
scFv: QVQLVQSGAEVKKPGASVKVSCKASGYTFTDHAIHWVRQAPGQCLEWMGYFSPGNDDFKYSQKFQGRVTITADKSASTAYMELSSLRSEDTAVYYCARSWIMQYWGQGTLVTVSSGGGGSGGGGSGGGGSDIVMTQSPDSLAVSLGERATINCKSSQSVLYSSNNKNYLAWYQQKPGQPPKLLIYWASTRESGVPDRFSGSGSGTDFTLTISSLQAEDVAVYYCQQYYSYPLTFGCGTKVEIK
With B1 the binding to mucin [1] was “bound to mucin”.

B2: PEG×TAG72: monovalent BsAb: hE11 anti-PEG Fab fused to anti-TAG72 scFv (example 2.1) (protein)
light: DVVMTQSPLSLPVTLGQPASISCRSSKSIVHSNGNTYLEWFQQRPGQSPRRLIYKVSKRMSGVPDRFSGSGSGTDFTLKISRVEAEDVGVYYCSQGSHVPPTFGGGTKVEIKRTVAAPSVFIFPPSDEQLKSGTASVVCLLNNFYPREAKVQWKVDNALQSGNSQESVTEQDSKDSTYSLSSTLTLSKADYEKHKLYACEVTHQGLSSPVTKSFNRGEC
heavy: QVQLVQSGAEVKKPGASVKVSCKASGYTFTTYTMNWVRQAPGQGLEWMGYIIPSSGYVDYNQKFKGRVTMTRDTSTSTVYMELSSLRSEDTAVYYCVRSLDGYFWFAYWGQGTLVTVSSASTKGPSVFPLAPSSKSTSGGTAALGCLVKDYFPEPVTVSWNSGALTSGVHTFPAVLQSSGLYSLSSVVTVPSSSLGTQTYICNVNHKPSNTKVDKRVVDLVTVSSASTGGGSGQLGGGGSQVQLVQSGAEVKKPGASVKVSCKASGYTFTDHAIHWVRQAPGQCLEWMGYFSPGNDDFKYSQKFQGRVTITADKSASTAYMELSSLRSEDTAVYYCARSWIMQYWGQGTLVTVSSGGGGSGGGGSGGGGSDIVMTQSPDSLAVSLGERATINCKSSQSVLYSSNNKNYLAWYQQKPGQPPKLLIYWASTRESGVPDRFSGSGSGTDFTLTISSLQAEDVAVYYCQQYYSYPLTFGCGTKVEIKTRHHHHHH
In the case of B2, the “binding of monovalent BsAb to Jurkat T cells” value [2] is reported as “bound to Jurkat T cells”.

B3: h6.3Fab×CD19: monovalent humanized anti-PEG h6.3 Fab fused to hBU12 anti-CD19 dsFv; SEQ ID NO 9, 10, 4, 11, 6 (protein)
chain 1: DIVMTQSPDSLAVSLGERATINCKSSQSVLYSSNQMNYLAWYQQKPGQPPKLLIYWASTRESGVPDRFSGSGSGTDFTLTISSLQAEDVAVYYCLQYLSSWTFGGGTKLEIKTYSLSSTLTLSKADYEKHKLYACEVTHQGLSSPVTKSFNRGEC
chain 2: QVQLVQSGSELKKPGASVKVSCKASGYTFKNYGMNWVRQAPGQGLEWMGWINTYTGQPIYANDFKGRFVFSLDTSVSTAYLQISSLKAEDTAVYYCARDWGPYWGQGTLVTVSSASTKGPSVFPLAPSSKSTSGGTAALGCLVKDYFPEPVTVSWNSGALTSGVHTFPAVLQSSGLYSLSSVVTVPSSSLGTQTYICNVNHKPSNTKVDKRVEPKSCDK
chain 3: VDLVTVSSASTGGGSGQLGGGGS
chain 4: QVQLQESGPGLVKPSQTLSLTCTVSGGSISTSGMGVGWIRQHPGKCLEWIGHIWWDDDKRYNPALKSRVTISVDTSKNQFSLKLSSVTAADTAVYYCARMELWSYYFDYWGQGTLVTVSSGGGGSGGGGSGGGGSEIVLTQSPATLSLSPGERATLSCSASSSVSYMHWYQQKPGQAPRLLIYDTSKLASGIPARFSGSGSGTDFTLTISSLEPEDVAVYYCFQGSVYPFTFGCGTKLEIKR
chain 5: TRHHHHHH
modifications: Humanized 6.3 VL-Ck; Humanized 6.3 VH-CH1; Peptide Linker; hBU12 dsFv; 6xHis Tag
With B3 the “uptake of PEG-Qdot655 into A431 cells (endocytic vesicles)” value [3] was “failed to produce PEG-Qdot655 signals”, the “directing PEGylated substance to Raji cells” value [4] was “capable of directing PEGylated substance to Raji cells” and the “binding to BSA” value [5] was “not to the control BSA protein”. The “binding to NH2-PEG10,000-NH2” value [6] was “bound to the NH2-PEG10,000-NH2” and the “effect on cytotoxicity of Doxisome to Raji cells” value [7] was “enhanced cytotoxicity of Doxisome”.
